# In PMC12060307:
# What was measured:
# [1] = tested on: MPJSBWMV:GFP (movement protein, GFP fusion, in leaf extract) (Japanese soil-borne wheat mosaic virus); assay: MST; conditions: MST in leaf extract: extraction in 2x MST buffer (100 mM Tris-HCl pH 7.5, 300 mM NaCl, 10 mM MgCl2, 0.1% Tween-20, 0.1 mg/mL BSA, 10 mM DTT, protease …)
# [2] = biological target: Japanese soil-borne wheat mosaic virus movement protein (MP^JSBWMV), as fusions MP^JSBWMV:RFP and MP^JSBWMV:GFP (Japanese soil-borne wheat mosaic virus); assay: FRET or BRET; FRET-FLIM (two-photon, time-correlated single-photon counting) in agro-inoculated N. benthamiana epidermal cells, at plasmodesmata; donor MP:GFP, acceptor RFP fusion; FRET efficiency above 5% considered as interaction
Substance,Kd [1],% FRET [2],fluorescence lifetime of the donor MP:GFP [2]
RNA2JSBWMV,4.5 nM,,
tRNA1JSBWMV (tRNA-like structure of RNA1),16.2 nM,,
"Japanese soil-borne wheat mosaic virus movement protein (MP^JSBWMV), as fusions MP^JSBWMV:RFP and MP^JSBWMV:GFP (natural protein)",,19.1%,2 ns
RNA1JSBWMV,15.4 nM,,
tRNA2JSBWMV (tRNA-like structure of RNA2),28.3 nM,,
